The target in data set [1] is T1, Nsp9COV19 (15N-labeled) (SARS-CoV-2, UniProt P0DTD1 4141-4253). The data set can be described thus: 15N-1H HSQC NMR titration.
In data set [2] the target is T1, Nsp9COV19 (15N-labeled). The experiment in a line: 15N-1H HSQC NMR titration. The source holds these as a separate data set.

Turning to AUUCG (ssRNA) [RNA.1 (5 nt ssRNA)], the binding result with Nsp9COV19 (15N-labeled) [1] was “binds”.

In the case of UUGGAGUU (ssRNA) [RNA.2 (8 nt ssRNA)], in the data set with Nsp9COV19 (15N-labeled) [2], the Kd was about 550 µM.

By Kd is commonly meant a measure of binding affinity in units of concentration.

Source of the values: PMC8317483.
